Laboratory results as given in patent US9533026B2, “Polypeptide compounds for inhibiting angiogenesis and tumor growth” (VasGene Therapeutics, Inc., priority 2004, dated 2017).

Assays:
KS-SLK cells = experiment: KS-SLK cord formation on Matrigel; type: cell-based, human
Procedure: Cord formation assay of HUVEC in Matrigel™ (upper row). Cells in exponential growth phase were treated overnight with the indicated concentrations of EphB4 extracellular domain (ECD) prior to plating on Matrigel™. Cells were trypsinized and plated (1×10^5 cells/well) in a 24-well plate containing 0.5 ml Matrigel™. Shown are representative 20× phase contrast fields of cord formation after 8 hr plating on Matrigel™ in the continued presence of the test compounds as shown. Original magnification 200×. KS-SLK cells treated in a similar manner (middle row) in a cord formation assay on Matrigel™. […] After 7 days the plugs were removed, sectioned and stained with H&E to visualize cells migrating into the matrix.

SCC15 tumors = experiment: SCC15 tumor growth and histology in nude mice, soluble EphB4; type: in vivo, mouse; details: treated vs control tumors, CD31

B1: soluble EphB4: soluble EphB4 extracellular domain protein; exact construct not stated at the results (protein)
chain: LEETLLNTKLETADLKWVTFPQVDGQWEELSGLDEEQHSVRTYEVCDVQRAPGQAHWLRTGWVPRRGAVHVYATLRFTMLECLSLPRAGRSCKETFTVFYYESDADTATALTPAWMENPYIKVDTVAAEHLTRKRPGAEATGKVNVKTLRLGPLSKAGFYLAFQDQGACMALLSLHLFYKKCAQLTVNLTRFPETVPRELVVPVAGSCVVDAVPAPGPSPSLYCREDGQWAEQPVTGCSCAPGFEAAEGNTKCRACAQGTFKPLSGEGSCQPCPANSHSNTIGSAVCQCRVGYFRARTDPRGAPCTTPPSAPRSVVSRLNGSSLHLEWSAPLESGGREDLTYALRCRECRPGGSCAPCGGDLTFDPGPRDLVEPWVVVRGLRPDFTYTFEVTALNGVSSLATGPVPFEPVNVTTDREVPPAVSDIRVTRSSPSSLSLAWAVPRAPSGAVLDYEVKYHEKGAEGPSSVRFLKTSENRAELRGLKRGASYLVQVRARSEAGYGPFGQEHHSQTQLDESEGWREQLA
KS-SLK cells
  cord formation: inhibits
SCC15 tumors
  Microvessel density in the outer viable rim of tumor cells: similar
